Experimental data published in patent US20200087372A1 (ZEALAND PHARMA A S, published 2020).

Legend:
Experiment in all cases: cell-based or functional assay
[1] = target: human glucagon receptor (Glucagon-R) (human, UniProt P47871 26-477)
[2] = target: human glucagon-like peptide 1 receptor (GLP-1R) (human, UniProt P43220 24-463)
[3] = target: T1, endogenous GLP-1 receptor of a murine insulinoma cell line (murine, UniProt O35659 22-463)
T1 sequence (looked up): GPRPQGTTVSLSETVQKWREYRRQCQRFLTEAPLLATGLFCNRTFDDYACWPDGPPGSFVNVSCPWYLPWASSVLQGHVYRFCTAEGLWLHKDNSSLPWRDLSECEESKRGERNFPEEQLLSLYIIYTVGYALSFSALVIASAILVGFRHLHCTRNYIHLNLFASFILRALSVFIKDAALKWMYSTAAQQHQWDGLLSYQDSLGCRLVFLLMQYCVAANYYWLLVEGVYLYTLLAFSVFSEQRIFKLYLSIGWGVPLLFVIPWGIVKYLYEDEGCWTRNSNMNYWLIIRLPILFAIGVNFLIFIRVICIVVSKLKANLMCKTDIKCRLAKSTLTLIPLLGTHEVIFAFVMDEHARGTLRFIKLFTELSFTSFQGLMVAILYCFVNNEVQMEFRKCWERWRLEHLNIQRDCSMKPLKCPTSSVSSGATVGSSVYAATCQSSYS

[4] = target: endogenous glucagon receptor of primary rat hepatocytes (rat, UniProt P30082 27-485)
endogenous glucagon receptor of primary rat hepatocytes, sequence (P30082 27-485): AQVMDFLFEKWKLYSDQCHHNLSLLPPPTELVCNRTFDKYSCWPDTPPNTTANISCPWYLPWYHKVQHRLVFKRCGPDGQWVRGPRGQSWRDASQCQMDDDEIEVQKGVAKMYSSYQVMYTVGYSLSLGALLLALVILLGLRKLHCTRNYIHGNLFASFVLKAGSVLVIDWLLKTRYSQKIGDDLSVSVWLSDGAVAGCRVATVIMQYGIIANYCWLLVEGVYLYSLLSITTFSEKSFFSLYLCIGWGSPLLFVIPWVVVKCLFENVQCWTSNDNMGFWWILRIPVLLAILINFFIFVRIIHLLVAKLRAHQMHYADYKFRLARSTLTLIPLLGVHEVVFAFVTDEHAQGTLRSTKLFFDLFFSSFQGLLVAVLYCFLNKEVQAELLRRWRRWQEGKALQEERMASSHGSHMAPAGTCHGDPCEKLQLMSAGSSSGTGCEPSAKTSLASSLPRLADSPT

human glucagon receptor (Glucagon-R), sequence (P47871 26-477): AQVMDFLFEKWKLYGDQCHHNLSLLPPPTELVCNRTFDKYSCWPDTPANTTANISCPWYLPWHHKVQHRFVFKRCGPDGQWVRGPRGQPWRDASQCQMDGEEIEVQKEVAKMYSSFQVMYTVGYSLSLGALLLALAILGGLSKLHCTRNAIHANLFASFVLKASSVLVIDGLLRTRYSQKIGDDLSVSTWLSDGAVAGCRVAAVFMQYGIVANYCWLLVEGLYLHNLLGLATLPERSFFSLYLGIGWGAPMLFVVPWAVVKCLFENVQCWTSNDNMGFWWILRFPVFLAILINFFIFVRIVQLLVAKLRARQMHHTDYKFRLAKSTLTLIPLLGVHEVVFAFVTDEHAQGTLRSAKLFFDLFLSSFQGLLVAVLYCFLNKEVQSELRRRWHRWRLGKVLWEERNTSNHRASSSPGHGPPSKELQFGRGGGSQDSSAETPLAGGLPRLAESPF

B1: Compound 1: H-H-Aib-QGTFTSDYSKYLDERAAKDFIEWLE-K([17-Carboxy-heptadecanoyl]-isoGlu-GSGSGG)-A-NH2 (peptide)
peptide: HAQGTFTSDYSKYLDERAAKDFIEWLEKA
modifications: Aib (alpha-aminoisobutyric acid) at position 2; Lys 28 conjugated via its epsilon amino group to [17-Carboxy-heptadecanoyl]-isoGlu-GSGSGG; C-terminal amide (NH2); free N-terminus (R1 = H)
EC50 hGCGR CHO-K1 [nM] (cAMP, AlphaScreen) [1]: 3.6 nM | EC50 hGLP-1R CHO-K1 [nM] (cAMP, AlphaScreen) [2]: 0.48 nM | EC50 [nM] (cAMP in murine insulinoma cells) [3]: 0.54 nM | EC50 [nM] (inhibition of glycogen synthesis rate in primary rat hepatocytes) [4]: 5.6 nM
